The values below are quoted from earlier work in PMC5669632.

In one data set the target is His25 (UniProt position 25, HGSALHWRAAG). The data set can be described thus: electrophysiology. The note with it: not stated for the quoted data (the present recordings are said to follow the same earlier protocols).
A further data set addresses Glu118 (UniProt position 118, WFVGREQERRG). The data set can be described thus: electrophysiology. The settings on record: not stated for the quoted data (the present recordings are said to follow the same earlier protocols).
Setting [1] is: closed channel state (model parameter pKa closed).
Where [2] appears, read: open channel state (model parameter pKa open).

Turning to “KcsA potassium channel, E71A (non-inactivating control channel) (Streptomyces lividans; E71A)”, the pKa in the data set with His25 (setting [1]) is on record as 4.8 (N/A); with His25 (setting [2]), 7.6.

Consider “KcsA potassium channel, H25R/E71A (Streptomyces lividans; H25R;E71A)”, for which the pKa in the data set with Glu118 (setting [1]) is given as 5.0 (0.1); with Glu118 (setting [2]) it was 6.2 (0.1).
